Key:
human CLD18A1 [1] = molecular target: T1, human CLD18A1 (human, UniProt P56856 1-261); assay: flow cytometry on HEK293-CLD18A1 cells
T1 construct: Expressed on transfected HEK293 or CHO cells; also called claudin 18 splice variant 1; NP_057453

human CLD18A1 [2] = molecular target: T1, human CLD18A1; assay: summary of Example 10
human CLD18A1 [3] = molecular target: T1, human CLD18A1; assay: overview table of murine antibodies
murine CLD18A1 [4] = molecular target: T2, murine CLD18A1 (mouse, UniProt P56857 1-264); assay: overview table of murine antibodies
T2 construct: Transiently expressed on HEK293 cells; also called mouse CLD18A1; NP_062789

human CLD18A1 [5] = molecular target: T1, human CLD18A1; assay: overview table of chimeric antibodies
murine CLD18A1 [6] = molecular target: T2, murine CLD18A1; assay: summary of Example 10

B1: ch-43A11 (antibody, V domains shown)
VH: QVQLQQSGAELMKPGASVKISCKATGYTFSSYWIEWVKQRPGHGLEWIGEILPGSGSTNYNEKFKGKATFTADTSSNTAYMQLSSLTSEDSAVYYCARYDYPWFAYWGQGTLVTVSA
VL: QIVLTQSPAIMSASPGEKVTITCSASSSVSYMHWFQQKPGTSPKLWIYSTSNLASGVPARFSGSGSGTSYSLTISRMEAEDAATYYCQQRSSYPPTFGGGTKLEIKR
notes: Mouse/human chimeric, human gamma-1 and kappa constant regions; also called chimeric 43A11
Does B1 bind (human CLD18A1 [1])?
Result: no binding

B2: 43A11 (antibody, IgG2a, V domains shown)
VH: B1 VH
VL: QIVLTQSPAIMSASPGEKVTITCSASSSVSYMHWFQQKPGTSPKLWIYSTSNLASGVPARFSGSGSGTSYSLTISRMEAEDAATYYCQQRSSYPPTFGGGTKLEIK
notes: mouse monoclonal IgG2a, kappa; also called 182-D1106-062; DSM ACC2742
Does B2 bind (human CLD18A1 [2])?
Result: no binding

B3: 163E12 (antibody, IgG3, V domains shown)
VH: QIQLVQSGPELKKPGETVKISCKASGYTFTNYGMNWVKQAPGKGLKWMGWINTNTGEPTYAEEFKGRFAFSLETSASTAYLQINNLKNEDTATYFCARLGFGNAMDYWGQGTSVTVSS
VL: DIVMTQSPSSLTVTAGEKVTMSCKSSQSLLNSGNQKNYLTWYQQKPGQPPKLLIYWASTRESGVPDRFTGSGSGTDFTLTISSVQAEDLAVYYCQNDYSYPLTFGAGTKLELK
notes: mouse monoclonal IgG3, kappa; also called 182-D1106-294; DSM ACC2809
What does the source list for B3?
binding result (human CLD18A1 [3]): no binding; binding result (murine CLD18A1 [4]): no binding

B4: ch-163E12 (antibody, V domains shown)
VH: B3 VH
VL: DIVMTQSPSSLTVTAGEKVTMSCKSSQSLLNSGNQKNYLTWYQQKPGQPPKLLIYWASTRESGVPDRFTGSGSGTDFTLTISSVQAEDLAVYYCQNDYSYPLTFGAGTKLELKR
notes: Mouse/human chimeric, human gamma-1 and kappa constant regions; also called chimeric 163E12
Does B4 bind (human CLD18A1 [5])?
Result: no binding

B5: ch-166E2 (antibody, V domains shown)
VH: QVQLQQSGPELVKPGASVKMSCKASGYTFTDYVISWVKQRTGQGLEWIGEIYPGSGSTYYNEKFKGKATLTADKSSNTAYMQLSSLTSEDSAVYFCARGVLLRAMDYWGQGTSVTVSS
VL: DIVMSQSPSSLAVSAGEKVTMSCKSSQSLLNSRTRKNYLAWYQQKPGQSPKLLIYWASTRESGVPDRFTGSGSGTDFTLTISSVQAEDLAVYYCKQSYNLYTFGGGTKLEIKR
notes: Mouse/human chimeric, human gamma-1 and kappa constant regions; also called chimeric 166E2
Does B5 bind (human CLD18A1 [1])?
Result: no binding

B6: 166E2 (antibody, IgG3, V domains shown)
VH: B5 VH
VL: DIVMSQSPSSLAVSAGEKVTMSCKSSQSLLNSRTRKNYLAWYQQKPGQSPKLLIYWASTRESGVPDRFTGSGSGTDFTLTISSVQAEDLAVYYCKQSYNLYTFGGGTKLEIK
notes: mouse monoclonal IgG3, kappa; also called 182-D1106-308
Does B6 bind (human CLD18A1 [2])?
Result: no binding

Does B6 bind (murine CLD18A1 [6])?
Result: no binding

B7: 125E1 (antibody, IgG2a, V domains shown)
VH: QVQLQQSGAELARPGASVKLSCKASGYTFTDYYINWVKQRTGQGLEWIGEIYPGSGNTYYNEKFKGKATLTADKSSSTAYMQLSSLTSEDSAVYFCARSYGAFDYWGQGTTLTVSS
VL: DIVMTQSQKFMSTSVGDRVSITCKASQNVRTAVAWYQQKPGQSPKALIYLASNRHTGVPDRFTGSGSGTDFTLTISNVQSEDLADYFCLQHWNYPLTFGGGTKLEIK
notes: mouse monoclonal IgG2a, kappa; also called 182-D1106-279; DSM ACC2808
Does B7 bind (human CLD18A1 [3])?
Result: no binding

Does B7 bind (murine CLD18A1 [4])?
Result: no binding

B8: ch-125E1 (antibody, V domains shown)
VH: B7 VH
VL: DIVMTQSQKFMSTSVGDRVSITCKASQNVRTAVAWYQQKPGQSPKALIYLASNRHTGVPDRFTGSGSGTDFTLTISNVQSEDLADYFCLQHWNYPLTFGGGTKLEIKR
notes: Mouse/human chimeric, human gamma-1 and kappa constant regions; also called chimeric 125E1
Does B8 bind (human CLD18A1 [5])?
Result: no binding

From US20240117022A1 (GANYMED PHARMACEUTICALS, published 2024)
